Read-outs that look alike come from different tables or passages of the source.
Key:
[1] = biological target: T1, SiAgo (complex subunit);SiAga1 (complex subunit) (Sulfolobus islandicus M164;Sulfolobus …, UniProt C4KI01;C4KI00 1-459;1-243, |); assay: EMSA
T1 sequence 1: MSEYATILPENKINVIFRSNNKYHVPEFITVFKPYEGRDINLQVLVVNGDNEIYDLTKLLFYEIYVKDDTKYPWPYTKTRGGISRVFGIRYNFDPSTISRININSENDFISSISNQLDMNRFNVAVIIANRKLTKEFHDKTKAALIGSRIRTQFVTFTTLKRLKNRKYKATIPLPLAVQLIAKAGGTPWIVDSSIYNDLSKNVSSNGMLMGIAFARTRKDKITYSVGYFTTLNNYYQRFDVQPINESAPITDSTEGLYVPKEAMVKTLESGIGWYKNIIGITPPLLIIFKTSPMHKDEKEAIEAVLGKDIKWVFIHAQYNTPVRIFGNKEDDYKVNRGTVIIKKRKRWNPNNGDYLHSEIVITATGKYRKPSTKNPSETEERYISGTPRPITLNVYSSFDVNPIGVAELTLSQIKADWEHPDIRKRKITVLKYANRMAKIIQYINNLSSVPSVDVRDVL
T1 sequence 2: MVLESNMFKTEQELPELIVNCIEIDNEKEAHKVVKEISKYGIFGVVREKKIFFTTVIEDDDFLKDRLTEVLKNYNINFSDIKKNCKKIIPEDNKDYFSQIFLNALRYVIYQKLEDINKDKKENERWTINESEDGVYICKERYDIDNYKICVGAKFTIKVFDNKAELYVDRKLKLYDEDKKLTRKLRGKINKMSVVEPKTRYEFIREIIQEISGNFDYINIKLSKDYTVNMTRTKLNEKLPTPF

SiAgo = biological target: T2, SiAgo (Sulfolobus islandicus M164, UniProt C4KI01 1-459); assay: EMSA
T2 sequence: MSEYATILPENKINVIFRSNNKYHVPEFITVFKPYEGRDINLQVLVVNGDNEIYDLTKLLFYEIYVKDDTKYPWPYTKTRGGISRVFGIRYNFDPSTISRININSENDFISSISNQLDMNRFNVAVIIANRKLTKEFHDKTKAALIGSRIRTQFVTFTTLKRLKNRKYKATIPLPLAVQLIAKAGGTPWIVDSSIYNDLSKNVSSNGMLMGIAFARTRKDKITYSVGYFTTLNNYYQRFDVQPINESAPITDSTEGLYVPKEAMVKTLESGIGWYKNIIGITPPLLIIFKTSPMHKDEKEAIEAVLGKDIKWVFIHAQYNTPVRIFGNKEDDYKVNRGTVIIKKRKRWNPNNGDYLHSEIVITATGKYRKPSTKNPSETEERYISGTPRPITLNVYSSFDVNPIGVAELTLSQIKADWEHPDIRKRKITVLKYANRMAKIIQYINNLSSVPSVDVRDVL

[2] = biological target: T3, SiAgo M2;SiAga1 (complex subunit) (Sulfolobus islandicus M164;Sulfolobus …, UniProt C4KI01;C4KI00 1-459;1-243, K183A|); assay: EMSA
T3 sequence 1: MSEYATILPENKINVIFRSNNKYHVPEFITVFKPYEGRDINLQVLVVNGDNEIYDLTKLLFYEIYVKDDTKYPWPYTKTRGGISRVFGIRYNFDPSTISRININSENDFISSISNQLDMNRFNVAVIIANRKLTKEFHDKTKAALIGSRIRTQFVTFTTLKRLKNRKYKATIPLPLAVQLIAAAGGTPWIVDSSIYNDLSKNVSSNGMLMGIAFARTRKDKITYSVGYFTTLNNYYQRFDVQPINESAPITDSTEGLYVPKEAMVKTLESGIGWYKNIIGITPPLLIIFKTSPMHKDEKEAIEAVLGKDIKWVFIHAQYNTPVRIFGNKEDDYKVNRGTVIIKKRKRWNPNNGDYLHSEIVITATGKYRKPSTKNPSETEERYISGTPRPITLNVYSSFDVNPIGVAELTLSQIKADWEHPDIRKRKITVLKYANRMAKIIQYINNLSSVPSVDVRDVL
T3 sequence 2: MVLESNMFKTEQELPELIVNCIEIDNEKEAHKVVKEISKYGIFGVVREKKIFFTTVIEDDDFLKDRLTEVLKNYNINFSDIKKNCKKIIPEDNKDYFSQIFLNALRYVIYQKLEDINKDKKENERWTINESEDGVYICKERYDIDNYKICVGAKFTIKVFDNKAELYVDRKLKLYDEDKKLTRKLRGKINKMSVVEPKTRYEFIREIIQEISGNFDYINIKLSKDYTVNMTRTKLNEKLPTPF

[3] = biological target: T4, SiAgo M1;SiAga1 (complex subunit) (Sulfolobus islandicus M164;Sulfolobus …, UniProt C4KI01;C4KI00 1-459;1-243, K142A|); assay: EMSA
T4 sequence 1: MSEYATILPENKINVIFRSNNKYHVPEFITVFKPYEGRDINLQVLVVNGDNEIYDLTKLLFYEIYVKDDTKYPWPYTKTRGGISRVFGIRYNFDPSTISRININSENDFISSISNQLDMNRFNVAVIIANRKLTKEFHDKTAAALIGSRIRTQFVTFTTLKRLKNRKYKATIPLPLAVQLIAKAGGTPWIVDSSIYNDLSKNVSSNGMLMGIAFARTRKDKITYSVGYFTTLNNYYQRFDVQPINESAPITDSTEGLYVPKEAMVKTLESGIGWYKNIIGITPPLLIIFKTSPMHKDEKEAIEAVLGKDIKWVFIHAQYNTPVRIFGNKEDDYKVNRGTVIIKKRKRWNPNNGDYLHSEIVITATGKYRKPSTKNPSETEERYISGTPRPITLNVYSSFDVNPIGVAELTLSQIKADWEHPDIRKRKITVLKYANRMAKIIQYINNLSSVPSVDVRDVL
T4 sequence 2: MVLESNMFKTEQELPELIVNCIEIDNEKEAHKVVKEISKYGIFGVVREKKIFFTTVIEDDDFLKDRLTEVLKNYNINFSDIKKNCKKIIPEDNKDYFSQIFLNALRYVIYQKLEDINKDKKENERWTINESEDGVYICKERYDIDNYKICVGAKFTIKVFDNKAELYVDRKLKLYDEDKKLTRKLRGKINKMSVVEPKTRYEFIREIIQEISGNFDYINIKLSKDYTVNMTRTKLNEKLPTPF

[4] = biological target: T1, SiAgo (complex subunit);SiAga1 (complex …); assay: EMSA; remark: listed apart in the source
[5] = biological target: T3, SiAgo M2;SiAga1 (complex subunit); assay: EMSA; remark: listed apart in the source
[6] = biological target: T4, SiAgo M1;SiAga1 (complex subunit); assay: EMSA; remark: listed apart in the source
[7] = biological target: T1, SiAgo (complex subunit);SiAga1 (complex …); assay: competition

Q: Does UCAAAGCUUAGAUACCCUGGA (ssRNA, 5' phosphate) [5P-RNA] bind [1]?
A: Result: binds

Q: Does UCAAAGCUUAGAUACCCUGGA (ssRNA, 5' phosphate) [5P-RNA] bind (SiAgo)?
A: Result: binds

Q: Does UCAAAGCUUAGAUACCCUGGA (ssRNA, 5' phosphate) [5P-RNA] bind [2]?
A: Result: binds

Q: Does UCAAAGCUUAGAUACCCUGGA (ssRNA, 5' phosphate) [5P-RNA] bind [3]?
A: Result: binds

B1: guide 5P-RNA + TDNA (mixed)
RNA: UCAAAGCUUAGAUACCCUGGA
DNA: CCTCCAGGGTATCTAAGCTTTGAA
modifications: guide 5' phosphate
Q: Does B1 bind [4]?
A: Result: binds

Q: Does B1 bind [5]?
A: Result: binds

Q: Does B1 bind [6]?
A: Result: binds

B2: guide 5P-RNA + TRNA (mixed)
RNA 1: UCAAAGCUUAGAUACCCUGGA
RNA 2: CCUCCAGGGUAUCUAAGCUUUGAA
modifications: guide 5' phosphate
Q: Does B2 bind [4]?
A: Result: binds

B3: guide 5P-RNA + TDNA competitor (mixed)
RNA: UCAAAGCUUAGAUACCCUGGA
DNA: CCTCCAGGGTATCTAAGCTTTGAA
modifications: guide 5' phosphate
Q: Does B3 bind [7]?
A: Result: binds

B4: guide 5P-RNA + TRNA competitor (mixed)
RNA 1: UCAAAGCUUAGAUACCCUGGA
RNA 2: CCUCCAGGGUAUCUAAGCUUUGAA
modifications: guide 5' phosphate
Q: Does B4 bind [7]?
A: Result: binds

Source: article doi:10.1101/2021.12.09.471704
